Data as given in article PMC10794523.

Target: T1, Sif (Lmo0946-His6) (Listeria monocytogenes EGD-e) (UniProt Q8Y8F8)
T1 sequence: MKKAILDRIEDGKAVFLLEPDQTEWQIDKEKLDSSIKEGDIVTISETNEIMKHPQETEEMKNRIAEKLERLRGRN
Test: EMSA
Conditions: EMSA 37 C 30 min, 4.2% native PAGE, ethidium bromide stain; binding buffer not stated (protein dialyzed in 20 mM Tris-HCl pH 8.0, 150 mM NaCl, 1% glycerol)

| Sequence | binding |
| --- | --- |
| AGCGAATTAGCTCAAGTCCTCCATACCCCGTCGCGCCAATGATTGAAACTTTCATCCTAACCCCTCCCCGTTAATTATTAAATGATACTTTTCATTATAATGATGTATATTTATAATGTCAAATGGTTTTTTATTAATATTTAAAACTATTTTATGCATTTTAAGTTATTTATTATGTATATAATATACAAAAAACCGTTTATCCTTTTCTAGGATAAACGGTTAATCTTAAAATAAATCAGCGAACTCATCTTTCACTTGCGCAGTTTCCGCTAC (double strand) [argC promoter region] | no binding |
| GCGGTATGTTTCCACTGTCGCTGTAATACCTGATTGTTCTTTAGAAAGGTCGCGTAGTCGCTTTGGATCAGATACTACATCTGGATCACTTAGTAGTTCATTTAGTTCATCATAACGGTCTTCCACCGCCTGTAATCGATCATACATTGTATTCCAACACCTCTTTAACTTATTTTATTGGTGGATTGGCATGACATTTGCGACACACAGGGTAATAGTGGTCATTTCCGCCAATCATAATTTGTTCACCTGTATAAACTGGTTTTCCTTTGTCATCAACGCGCAG (double strand) [prfA promoter region] | no binding |
